For 1 substance, inhibition of tumor lysis by peptide specific CTLs with anti-CD11a (LFA-1) MAb, tumor cells after IFN-gamma exposure results are on record in patent US20080085266A1.

This assay concerns the target ICAM-1 (human) (UniProt P05362). The experiment in a line: cell-based or functional assay.

Sequence of ICAM-1 (human) (P05362 28-532): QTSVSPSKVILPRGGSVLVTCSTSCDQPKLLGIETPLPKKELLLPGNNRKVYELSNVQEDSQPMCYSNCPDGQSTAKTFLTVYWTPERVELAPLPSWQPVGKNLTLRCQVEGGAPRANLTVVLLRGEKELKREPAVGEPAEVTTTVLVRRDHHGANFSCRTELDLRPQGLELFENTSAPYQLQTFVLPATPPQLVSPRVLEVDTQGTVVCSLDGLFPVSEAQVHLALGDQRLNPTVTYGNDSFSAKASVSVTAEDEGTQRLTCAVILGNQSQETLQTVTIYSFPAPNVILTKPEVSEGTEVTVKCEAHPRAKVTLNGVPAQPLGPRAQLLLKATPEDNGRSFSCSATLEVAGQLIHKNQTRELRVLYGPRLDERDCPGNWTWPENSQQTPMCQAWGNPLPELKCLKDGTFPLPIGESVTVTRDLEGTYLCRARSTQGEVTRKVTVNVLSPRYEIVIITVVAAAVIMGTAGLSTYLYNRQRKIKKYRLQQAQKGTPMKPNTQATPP

In turn, “CD11a (LFA-1) (from UniProt P20701 26-1170) (receptor)” registered an inhibition of tumor lysis by peptide specific CTLs with anti-CD11a (LFA-1) MAb, tumor cells after IFN-gamma exposure of 60 to 86%.
